Assay results as given in the supplement of paper PMC10126150.
± gives the standard deviation of the averaged measurements.

System: ATP
Assay: switch fluorescence ratio, 500 uM ATP over buffer (Cy3 cluster intensity, sum of 5 cycles each) (fold (ratio)); higher = stronger signal-on switching upon ATP binding; sequences stand for … in TCGTCGGCAGCGTCAGATGTGTATAAGAGACAGTTTTTTTTTTTTTTTTTTTTTTTTT…TC
Conditions: aptamer strand: ATP DNA aptamer (quencher-CACCTGGGGGAGTATTGCGGAGGAAGG + anchor), 100 nM annealed; ATP concentration: 500 uM
How it was run: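 After annealing to 100 nM quencher-labelled ATP aptamer, Cy3-labelled switching-strand clusters on a modified Illumina MiSeq flow-cell were imaged in selection buffer. A second image followed after 15 min with 500 uM ATP at 22 °C, and five such buffer/ATP cycles were done, each separated by NaOH stripping and re-annealing. The fluorescence ratio, averaged per switch-domain sequence, is summed target-cycle over summed buffer-cycle Cy3 intensity per cluster, with clusters outside 100-1000 RFU excluded.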
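Also: ATP exposure 15 min at 22 °C before imaging.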

Sequence	switch fluorescence ratio
ACGGTGATCA	1.03 ± 0.038
CTATGTGGGT	1.02 ± 0.048
ACGTGTGATG	0.99 ± 0.024
GGCGTAGGGG	1.02 ± 0.038
TTTAAGCACG	1.09 ± 0.041
AATTTATCCG	1.02 ± 0.059
GATTTTTCAA	1 ± 0.021
GTGGACACAC	1.04 ± 0.035
AAATGAGGGG	0.992 ± 0.03
ATAGTACGCG	0.992 ± 0.03
TTGTAAGTT	0.99664 ± 0.00012
CAAATATACT	1.14 ± 0.13
TCGTAAAGGG	1.01 ± 0.022
TTCCTCGTTA	1.39 ± 0.029
CGCAGCCAGG	3.33 ± 0.27
TGGGATACTG	1 ± 0.013
ACCGTATTTG	1.119 ± 0.0047
TGTGGTGAGT	0.963 ± 0.012
TATGATGTCG	1.01 ± 0.027
CATCTCGTTT	1.02 ± 0.042
AATCGGTCAC	0.998 ± 0.025
AAAGGGATAT	0.975 ± 0.049
GGGGGGCCTC	0.981 ± 0.015
TTAAATGGGT	1 ± 0.033
CATGTCTGCT	0.9777 ± 0.0032

Sequence	switch fluorescence ratio
CGAGAAGTTT	1.005 ± 0.0081
TTTATCATAA	0.958 ± 0.017
GTTTGGCGTA	0.967 ± 0.015
TTGGGAAGTT	1.02 ± 0.031
TTGGTGTTCT	1.08 ± 0.039
GATGGTAGCT	1.04 ± 0.074
CGGGGGGACG	1.01 ± 0.084
GAGTTTGTTG	0.985 ± 0.014
TTTGATATAT	0.972 ± 0.012
GGGTAGGAAA	1.011 ± 0.007
ATTTTAGAAA	1.01 ± 0.015
ATTTGTGTTA	1.01 ± 0.013
TGATATAGGA	1.01 ± 0.064
GATGGGTTCT	0.9926 ± 0.0044
TTGTTTTCCG	1.02 ± 0.014
TTTGTTTGAG	0.991 ± 0.037
TAATGAGGGA	1 ± 0.038
TCAGCGACTT	1.01 ± 0.031
CATATACGAG	1.11 ± 0.015
AACTATTCGG	0.9788 ± 0.0054
GCCCGGCCAG	0.9693 ± 0.0062
AAGGGGAACT	0.9907 ± 0.0043
ATGTATTTTG	0.967 ± 0.049
TGTATATAGC	1 ± 0.021
TAGGGTTTAA	1.01 ± 0.021

Sequence	switch fluorescence ratio
CGTCTAACGC	1.02 ± 0.029
TTTAGCTGT	1.1 ± 0.17
GACACGGGGA	1.01 ± 0.041
TTTGGGCCCG	0.9936 ± 0.0014
TAAGGGGTCC	0.979 ± 0.013
TCCGCACAGA	3.41 ± 0.89
GTTCGGGGTT	1.014 ± 0.0016
TTTGCTTTTG	0.988 ± 0.021
AACAGATGGA	1.16 ± 0.3
CTTCCGGGGT	1.68 ± 0.1
AGATTAGAT	0.993 ± 0.015
GAGTTGGGTT	1.01 ± 0.034
GCTTGTAGGC	0.994 ± 0.017
TGGGGTTATA	1.02 ± 0.023
GTTGTATGTT	1.02 ± 0.039
TATTTGAGCA	0.995 ± 0.026
ACATCAGAAT	1.01 ± 0.028
GGGGGCAACA	0.973 ± 0.03
CGAGGTAGGG	1.01 ± 0.073
GGGATGGATT	0.969 ± 0.047
GATGGAGTTG	1.013 ± 0.0053
TTTCTTGGCG	1 ± 0.03
AGGAGGGCGA	0.9582 ± 0.002
AAACACAAGA	1.13 ± 0.18
GGTTCAGCGT	0.984 ± 0.015

Sequence	switch fluorescence ratio
TTGATCTCTT	1.01 ± 0.026
CGTGATTCAC	1.007 ± 0.0075
GGCTTACTAT	1.01 ± 0.02
GCTGCGGCAG	1.012 ± 0.0046
TAGTTAGGCA	0.9819 ± 0.0053
ACGCGGGTTT	1.02 ± 0.02
GAATTCAGGG	0.99 ± 0.014
CCATGTCGTA	0.995 ± 0.016
GGGATGCAGA	1.05 ± 0.0076
AGGTTGTTAG	1.01 ± 0.019
TGGACGTGGG	0.98 ± 0.052
GGGGGAGCAC	0.997 ± 0.017
TCTAGGGCGC	1.01 ± 0.053
GAAGAAAACA	0.955 ± 0.089
AAAAGGTAAA	1.02 ± 0.021
TTTGTTCCAG	1.01 ± 0.06
CTCGATAGGA	1.02 ± 0.0083
CCAGGATTGG	1 ± 0.006
TAAAGGATG	0.968 ± 0.019
TTAATCTTTT	1.06 ± 0.14
CAATTGGGGA	0.995 ± 0.029
GCTTGTACGT	1.021 ± 0.0096
TTTTTATCGG	1.01 ± 0.024
CGTAGCACAG	1.3067 ± 0.0013
TTTCCGGGGG	0.996 ± 0.022
